The chains are these.
T1: WHT2484 (PROSS-MPNN stabilized design of PvRBP2b_(169-470)) (Plasmodium vivax strain Salvador I …, Lys248Leu | Met324Phe | Gln378Leu | Arg418Glu)
T1 construct: PvRBP2b, P. vivax strain Salvador I, PVX_094255, residues 169-470 with 26 designed stabilising mutations; 26 mutations relative to the parental protein; crystal structure PDB 9DZD solved here
T1 chain: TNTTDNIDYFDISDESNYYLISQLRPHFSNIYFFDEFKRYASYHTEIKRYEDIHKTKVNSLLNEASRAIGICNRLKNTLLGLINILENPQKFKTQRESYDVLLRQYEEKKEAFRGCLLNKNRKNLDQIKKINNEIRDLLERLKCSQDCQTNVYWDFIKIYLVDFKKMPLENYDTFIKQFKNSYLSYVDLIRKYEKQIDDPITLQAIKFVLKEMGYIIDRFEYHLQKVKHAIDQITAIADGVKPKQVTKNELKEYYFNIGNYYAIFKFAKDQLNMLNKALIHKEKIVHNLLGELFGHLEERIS

T2: WHT2483 (PROSS-MPNN stabilized design of PvRBP2b_(169-470)) (Plasmodium vivax strain Salvador I …, Gln378Leu | Arg418Glu)
T2 construct: PvRBP2b, P. vivax strain Salvador I, PVX_094255, residues 169-470 with 19 designed stabilising mutations; 19 mutations relative to the parental protein; crystal structure PDB 9DZC solved here
T2 chain: T1 chain with L80K, R141K, F156M, Y193I, Q204N, I234V, I237L

B1: human mAb 253245 (antibody, V domains shown)
VH: EVQLVQSGAEVKKPGSSMKVSCKASGGTFNRYVFSWVRQAPGQGLEWMGGILPILETTYYAKNFKGRVTITADESTSTVYMELSSLTSEDTAVYFCARDEHDYVWGSYRPSLTGPWGQGTLVTVSS
VL: QSALTQPPSTSGSPGQSVTISCTGTGIDVGGFSYVSWFQYHPGKAPKLIIFEVTKRPSGVPDRFSGSKSGNTASLTISGLQADDEAEYYCSSYAVNNNFVFGTGTKVTVL
notes: naturally acquired human mAb, recombinant IgG captured by its Fc; source: Expi293 HEK cells, transfected, purified (protein A, SEC)
B2: human mAb 237235 (antibody, V domains shown)
VH: QVQLVESGGGVVQPGRSLRLSCAASGFMFNSYGMHWVRQAPGKGLEWMAFISYDGSDDYYGDSVKGRITISRDNSKNTLFLHINSLRTEDTAVYYCAKESNYGENAFDVWGHGTMVTVSS
VL: QSALTQPRSVSGSPGQSVTISCTGTSNDVGFYNFVSWYQHHPGKAPKLMIYDVTERPSGVPDRFSGSKSGNTASLTISGLQAEDEAEYYCCSYAGTYTFVFGHGTKVTVL
notes: as for B1
B3: human mAb 243244 (antibody, V domains shown)
VH: QVQLVESGGGVVQSGKSLRVSCAASGFTFSSYGMHWVRQAPGKGLEWVAFISYDGDNKYSADSVKGRLTISRDNSKNTLYLQMNSLRPEDTAVYYCAKESNYGENAFDIWGQGTMVTVSS
VL: B2 VL with N27S, M49I, T54S, T76S, A82P, E87D, H103S
notes: as for B1
B4: human mAb 283284 (antibody, V domains shown)
VH: QVQLQQWGAGLLKPSETLALTCTVYGGSSSGYYWNWIRQSPGKGLEWIGEISDSGSTIYNPSLESRVTMSVDTSKNQFSLKLTSVTAADTAVYYCAKAILTRYNWLDPWSQGTLVTVSS
VL: DIVMTQSPSSLSASVGDRISISCRASQGVNSALAWYQQKPGKAPKLLIYDASTLESGVPSRFSGSGSGTDFALTINSLQPEDFATYYCQQFNSYPLTFGGGTKVEIK
notes: as for B1
B5: human mAb 258259 (antibody, V domains shown)
VH: EVQLLESGGGLVRPGGSQRLSCAASGFTFTPYAMTWVRQAPGKGLEWLSTISGSGGSTYYADSVKGRFTISRDNSKNMLYLQMNSLTAEDTALYYCTKDKDEYTFGHNAFDVWGQGTMVTVSS
VL: SYELTQAPSVSVAPGQTARITCGGDNIGRKTVNWYQQKPGQAPVLVIYYDNDRPSGIPERFSGSNSGNMATLSISRVEVGDEADYYCQVWDSNNDHPVFGGGTKLTVV
notes: as for B1
B6: human mAb 273264 (antibody, V domains shown)
VH: B5 VH with Y59S, M78I, N84D, T87R, Q115R
VL: B5 VL with K30T, T31S, N33H, Y48F
notes: as for B1
B7: human mAb 241242 (antibody, V domains shown)
VH: EVQLLESGGGLVQPGGSLRLSCAVSGFTFRNYALSWVRQAPGKGLDWVSTISASGGATYYADSVKGHFTISRDNSKNILYLDMKSLRAEDTAIYYCARDGGSYTPYFFLDSWGQGALVTVSS
VL: SYELTQPASVSVAPGQTAQITCGGNSIGRKSIHWYQHKPGQAPVLVISYDSDRPSGIPERFSGSNSGNTATLTISKVEAGDEADFYCQVRDSDNDHVVFGGGTKLTVL
notes: as for B1
B8: human mAb 251249 (antibody, V domains shown)
VH: EVQLVESGGGLVKPGGSLRLSCEASGFLFSSYSMNWVRQAPGKGLEWVSSITGYSSEVFYTDSVKGRFTVSRDNSKNSLYLQMDSLRAEDTAVYYCARALTIFGVVITDYWFFDLWGRGTLVTVSS
VL: EIVLTQSPATLSLSPGDRATLSCRASQSVTTFLAWYQQKPGQAPRLLIYDVSNRATGIPARFSGSGSGTDFTLTISSLEPEDFAVYYCQQRSNWGLTFGGGTKVEIK
notes: as for B1

These results are taken from paper PMC11929097, “Stabilized designs of the malaria adhesin protein PvRBP2b for use as a potential diagnostic for Plasmodium vivax [image fx2.gif]” (The Journal of Biological Chemistry, 2025).

Numbering of substitutions follows the chain as printed. “And” between values parts separate entries of the source, which are not always exact repeats. Equal entries are not always repeated.

The first assay deals with T1, WHT2484 (PROSS-MPNN stabilized design …). Kind of assay: BLI; Octet RED96; human mAb loaded on anti-human IgG Fc capture sensor tips; parental PvRBP2b169-470 or design in solution, 2-fold series 0.63 to 10 nM; 25 °C; PBS, 0.1% bovine serum albumin, 0.05% Tween-20; global fit 1:1 model; two independent experiments. To be noted: both partners purified.
For the molecule B1, the kon (as a rule, a measure of how fast the partners come together) is 1.06e+06 M⁻¹ s⁻¹ and 1.12e+06 M⁻¹ s⁻¹.
Regarding B2, the on-rate constant (kon) was 658000 M⁻¹ s⁻¹ and 745000 M⁻¹ s⁻¹.
On to B3, for which the association rate constant (kon) is 705000 M⁻¹ s⁻¹ and 780000 M⁻¹ s⁻¹.
With B4, the Kd (in general, the equilibrium constant for the complex coming apart) is 0.112 nM and 0.074 nM; the koff (commonly a measure of how fast the partners let go of each other) was 0.000113 s⁻¹ and 6.89e-05 s⁻¹; the kon is 1.01e+06 M⁻¹ s⁻¹ and 936000 M⁻¹ s⁻¹.
On to B5, for which the Kd is 0.069 nM and 0.081 nM; the koff was 5.39e-05 s⁻¹ and 7.69e-05 s⁻¹; the kon is 778000 M⁻¹ s⁻¹ and 953000 M⁻¹ s⁻¹.
For the molecule B6, the Kd was 0.139 nM and 0.101 nM; the koff was 0.000124 s⁻¹ and 0.000106 s⁻¹; the kon was 893000 M⁻¹ s⁻¹ and 1.05e+06 M⁻¹ s⁻¹.
As to B7, the kon is 956000 M⁻¹ s⁻¹ and 1.18e+06 M⁻¹ s⁻¹.
Take B8: the Kd was 0.11 nM and 0.314 nM; the kon was 956000 M⁻¹ s⁻¹ and 1.26e+06 M⁻¹ s⁻¹.

The target in a further assay is T2, WHT2483 (PROSS-MPNN stabilized design …). Described as above. As to conditions: both partners purified.
Turning to B1, the kon is 1.04e+06 M⁻¹ s⁻¹ and 1.26e+06 M⁻¹ s⁻¹.
On to B2, for which the Kd was no more than 0.01 nM.
Regarding B3, the Kd is 0.053 nM and 0.018 nM; the kon was 1.02e+06 M⁻¹ s⁻¹ and 1.24e+06 M⁻¹ s⁻¹.
As to B4, the kon is 838000 M⁻¹ s⁻¹ and 910000 M⁻¹ s⁻¹.
As for B5, the Kd was 0.085 nM and 0.059 nM; the off-rate (koff) is 6.59e-05 s⁻¹ and 5.6e-05 s⁻¹; the kon is 778000 M⁻¹ s⁻¹ and 949000 M⁻¹ s⁻¹.
B6: the Kd is 0.089 nM and 0.154 nM; the koff is 6.92e-05 s⁻¹ and 0.000165 s⁻¹; the kon is 778000 M⁻¹ s⁻¹ and 1.07e+06 M⁻¹ s⁻¹.
In the case of B8, the kon is 978000 M⁻¹ s⁻¹ and 1.37e+06 M⁻¹ s⁻¹.

The next assay concerns the target T3, parental PvRBP2b_(169-470) (Plasmodium vivax reticulocyte-binding protein 2b, N-terminal domain) (Plasmodium vivax strain Salvador I, UniProt A5K736).
T3 construct: TEV cleavage site between the His tag and the protein; pPROEX HTb vector; also called parental construct; parental protein
The description is as above. As to conditions: both partners purified.
On to B1, for which the Kd was less than 0.001 nM; the koff was less than 1e-07 s⁻¹; the kon was 1.58e+06 M⁻¹ s⁻¹ and 1.18e+06 M⁻¹ s⁻¹.
With B2, the dissociation constant Kd was less than 0.001 nM; the dissociation rate constant (koff) was less than 1e-07 s⁻¹; the kon was 1.78e+06 M⁻¹ s⁻¹ and 1.31e+06 M⁻¹ s⁻¹.
For B3, the Kd was less than 0.001 nM; the koff is less than 1e-07 s⁻¹; the kon is 1.75e+06 M⁻¹ s⁻¹ and 1.32e+06 M⁻¹ s⁻¹.
In the case of B4, the Kd was less than 0.001 nM; the koff is less than 1e-07 s⁻¹; the kon is 1.48e+06 M⁻¹ s⁻¹ and 994000 M⁻¹ s⁻¹.
Regarding B5, the Kd was less than 0.001 nM; the koff is less than 1e-07 s⁻¹; the kon is 1.33e+06 M⁻¹ s⁻¹ and 976000 M⁻¹ s⁻¹.
In the case of B6, the Kd is less than 0.001 nM; the koff was less than 1e-07 s⁻¹; the kon was 1.18e+06 M⁻¹ s⁻¹ and 1e+06 M⁻¹ s⁻¹.
On to B7, for which the Kd is less than 0.001 nM; the koff was less than 1e-07 s⁻¹; the kon was 1.24e+06 M⁻¹ s⁻¹ and 1.52e+06 M⁻¹ s⁻¹.
B8: the Kd is less than 0.001 nM; the koff was less than 1e-07 s⁻¹; the kon was 1.63e+06 M⁻¹ s⁻¹ and 1.25e+06 M⁻¹ s⁻¹.
